The values that follow come from publication PMC9167512, “Intradiol ring cleavage dioxygenases from herbivorous spider mites as a new detoxification enzyme family in animals” (BMC Biology, 2022).

B1: TuDOG7 (Tetranychus urticae) (protein)
chain: ERSIEILNHDATVIDCARYKREANQHKCVITPFTTEGPYFLPDDYERSDITDGYTGVNLNLTLLLTNAKDCSPLSNYYVHIWNANAMGHYSGVKEFNFFDHPTFRPKPINNLRFLRGYQITNEDGLVNFNTIIPGWYFGRCIHIHVEIYDKNTTDGHAVSYIGQLYFNREMPAALKLIDPYSQNNNELTLNDQDIVFALSRGSDTILELIPEGNGYSASYVLSIDPTVKVENSVLPFEDPRNVSFIEH
B2: TuDOG1 (Tetranychus urticae) (protein)
chain: DVHRRGKFLPHDRTVINCASLNRKAHQHSSVLAPFTTEGPFFLPDDLKRSDITDGQKGIPLELTIKLTNAKDCTPISNFFIHAWQTNATGVYSGIDEDTAPLSGFRPTPVNRDRSLRGYQETDANGEVKFLTILPGWYSGRAIHIHIEVYAKDITDENKITYIGQFYFEHDFPLKLRKIYPYSTNTQRIIFNEQDYYYVHDHGDETTLDLKHNGAKFSSYATVAIDPTVTVHVQ
notes: signal peptide removed, N-terminal 6xHis kept, pJExpress 411, E. coli BL21(DE3), codon optimized (ATUM), 25-37 kDa
B3: TuDOG16 (Tetranychus urticae) (protein)
chain: HSERPGKFLEHDRSIVNCARYKREANQHTCVLAPFATEGPYFLADDLERSDITDGQTGVNLDLNLKLTNAKDCSPLSGYFVHIWNANALGHYSGVQEFNKFPKQTFRPKPIYDTRWLRGYQVTNEDGEVNFKTIVPGWYYGRCLHIHVEVYSKNTTDTNAITYIGQLYFKRELPVQLKLVEPYSSNQNELKFNEQDKVFNGMHGNDTITELVFEENNAKTSFILALDPTVTTLTNGTVVN
notes: as for B2
B4: TuDOG11 (Tetranychus urticae) (protein)
chain: HLQRPGKFLPHDRSIVDCARYKREANQHTCVLAPFTTEGPYFLPDDLERSDITDGQTGVNLDLNLKLTNAKDCSPLSNYFVHVWQANALGHYSGVNELFPVGFRPKPISGERFLRGYQKTNEDGEVNFKTIIPGWYVGRCIHIHVEVYAKNNTDGNAVNYIGQLYFERDIPSSLRLVEPYSTNVNEITLNDSDGVYLLTHGNDTLIDLVPQESGFRTDYIVAIDPDVSIKYDWLDI
notes: as for B2
B5: TuDOG15 (Tetranychus urticae) (protein)
chain: DHERPGKYLEHDSTVINCARYKREANQHSCVLAPYAVEGPYFLPDDLERSNLAEDKVGVSLDLAIRLVNSNDCTPLTNMFVHVWHADALGVYSGVPDLAELFVERMRQENKTLPPFWGPEGAYEGRRPGGPGGPGGPGGPGGPGDMEMPGRPTPVNNERFLRGYQVTNEAGEVNFKTIIPGWYTGRSLHIHVEVYSKNTTEPGEVNYIGQIFFKDDLPAELKLIEPYSLNQNILVLNPQDGIYNFAHGEQTKIQLENRETGYFGSMTFGINPNAH

Substrate in one data set: Oc1ccccc1O
Put plainly: purified protein. To be noted: 0.1 M PBS pH 7.5, 25 °C, O2 co-substrate (air), Fe enzyme, kcat corrected for iron content.
For the molecule B1, the Michaelis constant (Km) (in general, the concentration of substrate that gives half-maximal velocity) is 74.9 ± 30.9 µM; the Vmax – broadly, the rate approached at saturating substrate – was 0.42 µM/min; the kcat (usually the maximal rate divided by the concentration of active sites) was 0.0223 ± 0.00318 s⁻¹; the specificity constant (kcat/Km) (as a rule, the second-order rate constant that governs catalysis at low substrate concentration) was 300 ± 100 M⁻¹ s⁻¹.

As to B2, the Km is 15.2 ± 4.5 µM, the Vmax was determined as 0.14 µM/min, the kcat was 0.0378 ± 0.0027 s⁻¹ and the kcat/Km stood at 2480 ± 600 M⁻¹ s⁻¹.

B3: the Km stood at 51.0 ± 23.4 µM, the Vmax is 0.06 µM/min, the kcat turned out to be 0.00805 ± 0.00135 s⁻¹ and the catalytic efficiency (kcat/Km) was determined as 150 ± 50 M⁻¹ s⁻¹.

For B4, the Km was determined as 64.9 ± 24.3 µM, the Vmax is 0.56 µM/min, the turnover number (kcat) was found to be 0.0534 ± 0.00382 s⁻¹ and the kcat/Km worked out at 817 ± 150 M⁻¹ s⁻¹.

On to B5, for which the Km is 91.0 ± 21.2 µM, the Vmax was 0.09 µM/min, the kcat is 0.0133 ± 0.00148 s⁻¹ and the kcat/Km was determined as 150 ± 66.7 M⁻¹ s⁻¹.

Substrate in a further data set: Cc1ccc(O)c(O)c1
The experiment in a line: purified protein. It is filed as biochemical, Tetranychus urticae. Particulars: 0.1 M PBS pH 7.5, 25 °C, O2 co-substrate (air), Fe enzyme, kcat corrected for iron content.
Consider B1, for which the Km turned out to be 62.2 ± 42.3 µM, the Vmax is 0.53 µM/min, the kcat is 0.0282 ± 0.0122 s⁻¹ and the kcat/Km is 450 ± 283 M⁻¹ s⁻¹.

For the molecule B2, the Km stood at 15.1 ± 2.7 µM, the Vmax is 0.12 µM/min, the kcat worked out at 0.0324 ± 0.0027 s⁻¹ and the kcat/Km was determined as 2150 ± 1000 M⁻¹ s⁻¹.

As to B3, the Km is 52.4 ± 19.6 µM, the Vmax stood at 0.14 µM/min, the kcat turned out to be 0.0188 ± 0.00268 s⁻¹ and the kcat/Km was 367 ± 133 M⁻¹ s⁻¹.

Regarding B4, the Km amounted to 153.9 ± 24.6 µM, the maximum rate (Vmax) was found to be 0.58 µM/min, the kcat was found to be 0.0553 ± 0.00382 s⁻¹ and the kcat/Km was found to be 367 ± 150 M⁻¹ s⁻¹.

B5: the Km is 117.4 ± 46.5 µM, the maximal velocity (Vmax) was 1.77 µM/min, the kcat was found to be 0.261 ± 0.0546 s⁻¹ and the catalytic efficiency (kcat/Km) is 2230 ± 1170 M⁻¹ s⁻¹.

A further data set concerns Oc1ccc(Cl)cc1O. The experiment in a line: purified protein. To be noted: 0.1 M PBS pH 7.5, 25 °C, O2 co-substrate (air), Fe enzyme, kcat corrected for iron content.
For the molecule TuDOG7 (Tetranychus urticae), the Km stood at 115.2 ± 35.7 µM, the Vmax was determined as 0.96 µM/min, the kcat was 0.051 ± 0.0122 s⁻¹ and the kcat/Km was found to be 450 ± 350 M⁻¹ s⁻¹.

As for TuDOG11 (Tetranychus urticae), the Michaelis-Menten constant (Km) was 25.2 ± 4.6 µM, the Vmax was 0.09 µM/min, the kcat was determined as 0.00858 ± 0.00095 s⁻¹ and the kcat/Km is 333 ± 200 M⁻¹ s⁻¹.

With TuDOG15 (Tetranychus urticae), the Km stood at 72.0 ± 21.3 µM, the Vmax amounted to 0.62 µM/min, the kcat turned out to be 0.0915 ± 0.0133 s⁻¹ and the kcat/Km was 1270 ± 617 M⁻¹ s⁻¹.

In the case of TuDOG1 (Tetranychus urticae), the Km was 21.2 ± 7.4 µM, the Vmax is 0.08 µM/min, the kcat turned out to be 0.0216 ± 0.0027 s⁻¹ and the kcat/Km was 1020 ± 367 M⁻¹ s⁻¹.

For the molecule TuDOG16 (Tetranychus urticae), the Km was 154.3 ± 20.9 µM, the maximum rate (Vmax) worked out at 0.31 µM/min, the kcat was found to be 0.0416 ± 0.00135 s⁻¹ and the kcat/Km came to 267 ± 66.7 M⁻¹ s⁻¹.
